# Tests used:
# [1] = molecular target: HIV-1 integrase with methionine preceding the N-terminal phenylalanine (IN MF), full-length (HIV-1 (NL4-3)); experiment: SEC-MALS; Superdex 200 10/300, 25 °C, 20 mM HEPES-NaOH pH 7.5, 500 mM-1 M NaCl, 7 mM CHAPS, 10 µM ZnOAc2, 10 µM β-mercaptoethanol; eluted concentrations ~8-10 µM (IN 1F, IN MF); self-association
# [2] = molecular target: HIV-1 integrase with methionine preceding the N-terminal phenylalanine (IN MF), full-length (HIV-1 (NL4-3)); experiment: AUC; sedimentation velocity, 25 °C, 40,000 rpm, 20 mM HEPES-NaOH pH 7.5, 1 M NaCl, 7 mM CHAPS, 10 µM ZnOAc2, 10 µM β-mercaptoethanol; c(s) model in SEDFIT; self-association
# [3] = molecular target: HIV-1 integrase with methionine preceding the N-terminal phenylalanine (IN MF), full-length (HIV-1 (NL4-3)); experiment: AUC; sedimentation equilibrium, 4 °C, same data and buffer as the monomer-dimer fit; attempted fit of a dimer-tetramer equilibrium: tetramer to dimers
# [4] = molecular target: HIV-1 integrase with methionine preceding the N-terminal phenylalanine (IN MF), full-length (HIV-1 (NL4-3)); experiment: AUC; sedimentation equilibrium, 4 °C, 20 mM HEPES-NaOH pH 7.5, 1 M NaCl, 7 mM CHAPS, 10 µM ZnOAc2, 10 µM β-mercaptoethanol; global fit at 16, 20, 24 krpm (SEDPHAT); dimer to monomers
substance,measurement,setting,value
"HIV-1 integrase with methionine preceding the N-terminal phenylalanine (IN MF), full-length (enzyme)",stoichiometry N,[1],2
same,stoichiometry N,[2],2
same,Kd,[3],> 1000 µM
same,Kd,[4],127 µM
